Test results published in patent US20210380653A1.

Biological target: DR5 receptor (TRAIL-R2, TNFRSF10B) (human) (UniProt O14763)
Assay: cell-based or functional assay

DR5 receptor (TRAIL-R2, TNFRSF10B) (human), sequence (O14763 56-440): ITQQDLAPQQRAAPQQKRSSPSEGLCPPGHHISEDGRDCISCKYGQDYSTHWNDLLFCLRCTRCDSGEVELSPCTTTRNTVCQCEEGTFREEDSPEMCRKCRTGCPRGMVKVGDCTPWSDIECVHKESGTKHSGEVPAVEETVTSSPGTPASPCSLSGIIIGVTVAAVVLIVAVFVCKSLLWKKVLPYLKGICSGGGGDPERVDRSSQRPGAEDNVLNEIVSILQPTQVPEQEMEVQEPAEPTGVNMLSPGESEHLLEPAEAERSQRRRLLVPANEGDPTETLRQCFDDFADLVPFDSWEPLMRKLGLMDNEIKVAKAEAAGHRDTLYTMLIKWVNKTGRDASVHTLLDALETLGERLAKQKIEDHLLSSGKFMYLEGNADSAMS

## TLY012 (PEGylated miLZ-TRAIL; PEGylated form of recombinant human TRAIL fused to a modified isoleucine zipper at the N-terminus) (ligand)
  IC50, nM (cell viability / cytotoxicity, COLO-205 cells, CellTiter-Glo): 0.0155 nM
